{
  "source": "paper PMC5702669",
  "key": {"[1]": {"biological_target": "full-length PfMyoA heavy chain with C-terminal biotin tag and FLAG tag (P. falciparum) (UniProt Q8IDR3)"}, "skeletal muscle actin": {"biological_target": "skeletal muscle actin (UniProt P68135)"}},
  "data": [
    {"substance": "PF3D7_0107000, putative centrin-1 (PfPC1), N-terminal His6 tag (natural protein)", "values": [
      {"measurement": "in vitro motility speed of PfMyoA-MTIP with PF3D7 0107000 added, no calcium", "setting": "[1]", "result": 1.5, "unit": "μm/s"}
    ]},
    {"substance": "PF3D7_0627200, putative myosin light chain (PFF1320c) (from UniProt C6KTA8 1-139) (natural protein)", "values": [
      {"measurement": "in vitro motility speed of PfMyoA-MTIP with PF3D7 0627200 added, no calcium", "setting": "[1]", "result": 1.1, "unit": "μm/s"},
      {"measurement": "in vitro motility speed of PfMyoA-MTIP with PF3D7 0627200 added, with calcium", "setting": "[1]", "result": 0.6, "unit": "μm/s"}
    ]},
    {"substance": "PfMD T417D (phosphomimic at the TEDS site) (from UniProt Q8IDR3 1-768) (domain or fragment)", "values": [
      {"measurement": "Km (actin concentration at half-maximal activity) of the actin-activated ATPase, 30 °C, 5 mM NaCl", "setting": "skeletal muscle actin", "result": 4.4, "unit": "µM"}
    ]},
    {"substance": "P. falciparum essential light chain (PfELC), untagged (from UniProt Q8IJM4 1-134) (natural protein)", "values": [
      {"measurement": "in vitro motility speed of PfMyoA-MTIP with PfELC, no calcium", "setting": "[1]", "result": 3.8, "unit": "μm/s"},
      {"measurement": "in vitro motility speed of PfMyoA-MTIP with PfELC, with calcium (100 μM)", "setting": "[1]", "result": 3.8, "unit": "μm/s"}
    ]},
    {"substance": "PfMD T417A (phospho-null at the TEDS site) (from UniProt Q8IDR3 1-768) (domain or fragment)", "values": [
      {"measurement": "Km (actin concentration at half-maximal activity) of the actin-activated ATPase, 30 °C, 5 mM NaCl", "setting": "skeletal muscle actin", "result": 9.8, "unit": "µM"}
    ]},
    {"substance": "PfMD, PfMyoA motor domain (Met-1–Lys-768) with C-terminal FLAG tag (from UniProt Q8IDR3 1-768) (domain or fragment)", "values": [
      {"measurement": "Km (actin concentration at half-maximal activity) of the actin-activated ATPase, 30 °C, 5 mM NaCl", "setting": "skeletal muscle actin", "result": 13, "unit": "µM"}
    ]},
    {"substance": "T. gondii essential light chain TgELC1 (from UniProt A0A125YUL9 1-87) (natural protein)", "values": [
      {"measurement": "in vitro motility speed of PfMyoA-MTIP with TgELC1, no calcium", "setting": "[1]", "result": 3.3, "unit": "μm/s"}
    ]}
  ]
}
